Consider two proteins from article PMC3159919 (Structure (London, England : 1993), 2011).

Positions count from the first letter of the chain named. Numbers in names are those of the source.

Data set [1] concerns the molecule itself. Nature of the data set: pulse gradient diffusion NMR + NMR spin relaxation.
Data set [2] deals with the molecule itself. In words: NMR residual dipolar couplings.

B1: wild type CCL5 (RANTES) (natural protein, UniProt P13501 24-91, looked up)
chain: SPYSSDTTPCCFAYIARPLPRAHIKEYFYTSGKCSNPAVVFVTRKNRQVCANPEKKWVREYINSLEMS
As usually defined, the stoichiometry N is the number of molecules, sites or subunits per partner or assembly. As for B1, the “stoichiometry N” value in data set [1] worked out at 4.

B2: CCL5 E66S mutant (natural protein, UniProt P13501 24-91, looked up)
chain: B1 chain with E66S
In the case of B2, the binding result in data set [2] was “binds”.
